Tests used:
[1] = target: G120C/H31C HLA-A*02:01/β2m complex (open HLA-A*02:01); experiment: fluorescence polarisation
WT HLA-A*02:01/β2m = experiment: fluorescence polarisation

Work on “fluorophore-labeled TAX9 (TAMRA-TAX9) (peptide)” yielded a fold of the apparent association rate constant k^app on over WT [1] greater than 10 fold.
Substance TAX9 (peptide) has an IC50 [1] of 0.25 µM and an IC50 (WT HLA-A*02:01/β2m) of 0.25 µM.
